Measured values as given in patent US20240425589A1, “CYTOTOXICITY-INDUCING THERAPEUTIC AGENT FOR USE IN TREATMENT OF CANCER” (CHUGAI SEIYAKU KABUSHIKI KAISHA, priority 2021, published 2024).
Residue numbers refer to the chain shown, from its start.

B1: H1673L0943: affinity matured Dual-Fab variant, VH SEQ ID NO 100, VL SEQ ID NO 146 (antibody, V domains shown)
VH: QVQLVESGGGLVQPGRSLRLSCAASGFVFSNVWFHWVRQAPGKGLEWVAQIKDKWNAYADYYAPSVKERFTISRDDSKNSIYLQMNSLKTEDTAVYYCHYIHYASASTLLPAEGIDAWGQGTTVTVSS
VL: DIVMTQSPLSLPVTPGEPASISCQPSEEVVHMNRNTYLHWYQQKPGQAPRLLIYKVSNLFPGVPDRFSGSGSGTDFTLKISRVEAEDVGVYYCAQGTHHPFTFGQGTKLEIK
B2: H1550L0918: affinity matured Dual-Fab variant, VH SEQ ID NO 92, VL SEQ ID NO 144 (antibody, V domains shown)
VH: B1 VH with V28K, F34M, W55Y, D60A, E68G, E113F, I115V
VL: B1 VL with E27Q, R34N, N35V, T36V, L59R, H98S
B3: H2591L0581: affinity matured Dual-Fab variant, VH SEQ ID NO 101, VL SEQ ID NO 143 (antibody, V domains shown)
VH: B1 VH with V28K, K54Y, W55Y, D60G, A63H, E68G, I101V, S105A, I115V
VL: B1 VL with E27Q, L59R, H98S
B4: H2594L0581: affinity matured Dual-Fab variant, VH SEQ ID NO 102, VL SEQ ID NO 143 (antibody, V domains shown)
VH: B1 VH with V28K, K54Y, W55Y, D60G, A63H, E68G, I101V, S105A, T108Q, I115V
VL: B1 VL with E27Q, L59R, H98S
B5: H183L072: parental Dual-Fab (CD3/CD137), VH SEQ ID NO 90, VL SEQ ID NO 142 (antibody, V domains shown)
VH: B1 VH with V28T, V32A, F34M, W55G, D60A, E68G, I101V, L109V, E113F, I115V
VL: B1 VL with P25A, E27Q, V29L, L59R, H98S, H99V
B6: CS2961: anti-CLDN6/CD3 bispecific antibody comprising CLDN6 binding Fv CLDN6AE25EK and a CD3 binding Fv (SEQ ID NOs 184, 185) (antibody, V domains shown)
VH: QVQLVESGGGVVQPGGSLRLSCAASGFTFSNAWMHWVRKAPGKGLEWVAQIKDKSQNYATYVAESVKGRFTISRADSKNSIYLQMNSLKTEDTAVYYCRYVHYAAGYGVDIWGQGTTVTVSS
VL: DIVMTQSPLSLPVTPGEPASISCRSSQPLVHSNRNTYLHWYQEKPGQAPRLLIYKVSNRFSGVPDRFSGSGSGTDFTLKISRVEAEDVGVYYCGQGTQVPYTFGQGTKLEIK
modifications: CLDN6 binding Fv CLDN6AE25EK lacks SEQ ID
B7: CS3348: anti-CLDN6/CD3 bispecific antibody, chains SEQ ID NOs 193, 195, 194, 192; used as control (protein)
chain 1: QVQLVESGGGVVQPGGSLRLSCAASGFTFSSYTMSWVREAPGQGLEWMGTISSGGGRTYYPDSVKGRFTISRDNSKNTLYLQMNSLRDEDTAVYYCARGDYRYDGFAYWGEGTLVTVSSASTKGPSVFPLAPSSKSTSGGTAALGCLVEDYFPEPVTVSWNSGALTSGVHTFPAVLESSGLYSLSSVVTVPSSSLGTQTYICNVNHKPSNTKVDERVEPKSCDKTHTCPPCPAPEAAGGPSVFLFPPKPKDTLMISRTPEVTCVVVDVSHEDPEVKFNWYVDGVEVHNAKTKPREEQYASTYRVVSVLTVLHQDWLNGKEYKCKVSNKALPAPIEKTISKAKGQPREPQVYTLPPSREEMTKNQVSLTCLVKGFYPSDIAVEWESNGQPENNYKTTPPVLDSDGSFFLYSKLTVDKSRWQQGNVFSCSVMHEALHNHYTQESLSLSP
chain 2: DIQMTQSPSSLSASVGDRVTITCRASYNIDSYLAWYQKKPGKAPELLIYYSTLLVDGVPDRFSGSRSGTDFTLTISSLQPEDFATYYCQHYYSIPYTFGQGTKVEIERTVAAPSVFIFPPSDKQLKSGTAKVVCLLNNFYPREAKVQWKVDNALQSGNSKESVTEQDSKDSTYSLSSTLTLSKADYEKHKVYACEVTHQGLSSPVTKSFNRGEC
chain 3: QVQLVESGGGVVQPGGSLRLSCAASGFTFSNAWMHWVRKAPGKGLEWVAQIKDKSQNYATYVAESVKGRFTISRADSKNSIYLQMNSLKTEDTAVYYCRYVHYAAGYGVDIWGQGTTVTVSSASTKGPSVFPLAPSSKSTSGGTAALGCLVKDYFPEPVTVSWNSGALTSGVHTFPAVLKSSGLYSLSSVVTVPSSSLGTQTYICNVNHKPSNTKVDKRVEPKSCDKTHTCPPCPAPEAAGGPSVFLFPPKPKDTLMISRTPEVTCVVVDVSHEDPEVKFNWYVDGVEVHNAKTKPREEQYASTYRVVSVLTVLHQDWLNGKEYKCKVSNKALPAPIEKTISKAKGQPREPQVYTLPPSRKEMTKNQVSLTCLVKGFYPSDIAVEWESNGQPENNYKTTPPVLDSDGSFFLYSKLTVDKSRWQQGNVFSCSVMHEALHNHYTQKSLSLSP
chain 4: DIVMTQSPLSLPVTPGEPASISCRSSQPLVHSNRNTYLHWYQEKPGQAPRLLIYKVSNRFSGVPDRFSGSGSGTDFTLKISRVEAEDVGVYYCGQGTQVPYTFGQGTKLEIKRTVAAPSVFIFPPSDEQLKSGTAEVVCLLNNFYPREAKVQWKVDNALQSGNSEESVTEQDSKDSTYSLSSTLELSKADYEKHKVYACEVTHQGLSSPVTKSFNRGEC

Molecular target: T1, recombinant human CD3 (human CD3eg linker) (Homo sapiens, UniProt P07766+P09693)
T1 construct: made in house; host or cells: FreeStyle293F
Assay: Biacore T200 SPR affinity of Dual-Fab antibodies to human CD3
Format: binding
Details: 25 degrees C, pH 7.4
Excerpt: The gamma and epsilon subunits of the human CD3 complex (human CD3eg linker) were linked by a 29-mer linker and a Flag-tag was fused to the C-terminal end of the gamma subunit (SEQ ID NO: 169). This construct was expressed transiently using FreeStyle293F cell line (Thermo Fisher). Conditioned media expressing human CD3eg linker was concentrated using a column packed with Q HP resins (GE healthcare) and then applied to FLAG-tag affinity chromatography. Fractions containing human CD3eg linker were collected and subsequently subjected to a Superdex 200 gel filtration column (GE healthcare) equilibrated with 1×D-PBS. Fractions containing human CD3eg linker were then pooled and stored at −80 degrees C.
(§1) Binding affinity of Dual-Fab antibodies (Dual-Ig) to human CD3 were assessed at 25 degrees C. using Biacore T200 instrument (GE Healthcare). Anti-human Fc (GE Healthcare) was immobilized onto all flow cells of a CM4 sensor chip using amine coupling kit (GE Healthcare). Antibodies were captured onto the anti-Fc sensor surfaces, then recombinant human CD3 or CD137 was injected over the flow cell. All antibodies and analytes were prepared in ACES pH 7.4 containing 20 mM ACES, 150 mM NaCl, 0.05% Tween 20, and 0.005% NaN3. Sensor surface was regenerated each cycle with 3M MgCl2. Binding affinity were determined by processing and fitting the data to 1:1 binding model using Biacore T200 Evaluation software, version 2.0 (GE Healthcare). CD137 binding affinity assay was conducted in same condition except assay temperature was set at 37 degrees C.

T1 sequence (P07766+P09693 fused): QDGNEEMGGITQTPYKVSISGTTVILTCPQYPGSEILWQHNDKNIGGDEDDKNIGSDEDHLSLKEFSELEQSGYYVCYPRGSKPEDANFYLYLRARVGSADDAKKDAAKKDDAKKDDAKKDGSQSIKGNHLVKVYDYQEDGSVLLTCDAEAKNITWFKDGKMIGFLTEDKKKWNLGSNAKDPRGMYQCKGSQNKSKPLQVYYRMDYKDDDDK

Point of comparison: B1, “CD3 Koff” value 0.00116 s⁻¹. Against it:
- B2 — 2.7-fold higher, 0.00316 s⁻¹
- B3 — 46-fold higher, 0.0535 s⁻¹
- B4 — 50-fold higher, 0.0584 s⁻¹
- B5 — 10-fold higher, 0.012 s⁻¹

Point of comparison: B4, “CD3 Kon” value 98300 M⁻¹ s⁻¹. Against it:
- B1 — 1.8-fold lower, 55000 M⁻¹ s⁻¹
- B2 — within 1.5-fold, 72000 M⁻¹ s⁻¹
- B3 — within 1.5-fold, 102000 M⁻¹ s⁻¹
- B5 — 2.8-fold lower, 35400 M⁻¹ s⁻¹

Molecular target: T2, recombinant human CD137 (Homo sapiens, UniProt Q07011)
T2 construct: made in house; host or cells: FreeStyle293F
Assay: Biacore T200 SPR affinity of Dual-Fab antibodies to human CD137
Format: binding
Details: 37 degrees C, pH 7.4
Excerpt: Human CD137 extracellular domain (ECD) (SEQ ID NO: 179) with hexahistidine (His-tag) and biotin acceptor peptide (BAP) on its C-terminus was expressed transiently using FreeStyle293F cell line (Thermo Fisher). Conditioned media expressing human CD137 ECD was applied to a HisTrap HP column (GE healthcare) and eluted with buffer containing imidazole (Nacalai). Fractions containing human CD137 ECD were collected and subsequently subjected to a Superdex 200 gel filtration column (GE healthcare) equilibrated with 1×D-PBS. Fractions containing human CD137 ECD were then pooled and stored at −80 degrees C.
as §1

T2 sequence (Q07011 with tags, fused parts or gaps): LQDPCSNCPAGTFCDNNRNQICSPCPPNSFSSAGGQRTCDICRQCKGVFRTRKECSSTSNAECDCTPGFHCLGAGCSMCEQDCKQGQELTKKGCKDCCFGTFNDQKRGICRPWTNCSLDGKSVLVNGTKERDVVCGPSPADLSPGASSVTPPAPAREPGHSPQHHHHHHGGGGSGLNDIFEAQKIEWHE

Point of comparison: B4, “CD137 Koff” value 0.00163 s⁻¹. Against it:
- B1 — 2.3-fold lower, 0.000722 s⁻¹
- B2 — 3.6-fold higher, 0.00579 s⁻¹
- B3 — 2.2-fold lower, 0.000742 s⁻¹
- B5 — 12-fold higher, 0.0196 s⁻¹

Point of comparison: B5, “CD137 Kon” value 3470 M⁻¹ s⁻¹. Against it:
- B1 — 3.5-fold higher, 12200 M⁻¹ s⁻¹
- B2 — 3.1-fold higher, 10900 M⁻¹ s⁻¹
- B3 — 5.9-fold higher, 20400 M⁻¹ s⁻¹
- B4 — 6-fold higher, 20900 M⁻¹ s⁻¹

In the case of B5, the Kd is reported as 5.66 µM.

System: hCLDN6/BaF, hCLDN3/BaF, hCLDN4/BaF, and hCLDN9/BaF
Assay: FACS analysis of specificity against CLDN family
Format: binding, human
Details: 15 micro g/ml, compared with 6PHU3/TR01
Experimental: Amino acid sequences are highly conserved among CLDN3, CLDN4, CLDN6 and CLDN9. Thus we examined CLDN6 binding specificity of CLDN6 binding Fv comprising 65HQ39E as VH and 54L0532Q38K as VL, by FACS analysis. hCLDN6/BaF, hCLDN3/BaF, hCLDN4/BaF, and hCLDN9/BaF were incubated with an anti-CLDN6/CD3 bispecific antibody (CS2961) comprising the CLDN6 binding Fv CLDN6AE25EK and a CD3 binding Fv (heavy chain variable region SEQ ID NO: 184, light chain variable region SEQ ID NO: 185) at 15 micro g/ml. Another anti-CLDN6/CD3 bispecific antibody (6PHU3/TR01) and an antibody without binding capability to CLDN6 (KLH/TR01) were used as a staining control. 6PHU3/TR01 and KLH/TR01 comprise the same CD3 binding Fv (heavy chain variable region SEQ ID No: 188, light chain variable region SEQ ID NO: 189). The CLDN6 binding Fv of 6PHU3/TR01 comprises a heavy chain variable region shown in SEQ ID NO: 190 and a light chain variable region shown in SEQ ID NO: 191. KLH/TR01 comprises a KLH binding Fv (heavy chain variable region SEQ ID NO: 186, light chain variable region SEQ ID NO: 187).
Binding of each antibody was detected with Alexa Fluor 488-conjugated anti human IgG (Invitrogen). Dead cells were separated by eFlour 780 (Invitrogen) staining. […]

For B6, the “specificity towards CLDN6 among CLDN3, CLDN4, CLDN6, CLDN9” value was “better specificity towards CLDN6”.

System: not listed separately
Assay: Single dose toxicology study
Format: in vivo, cynomolgus monkey
Details: cynomolgus monkey, in vivo, iv
Experimental: Potential toxicity of PPU4135 antibody (anti-CLDN6/Dual-Fab tri-specific antibody) was evaluated in toxicity study using cynomolgus monkeys compared with CS3348 antibody (anti-CLDN6/CD3 bispecific antibody). Because both PPU4135 and CS3348 antibodies cross-reacted with their antigens of cynomolgus monkey, cynomolgus monkey was selected as the animal species for evaluations in the in vivo toxicology studies. Since toxicological findings seemed to be more sensitive in male than female animals in the toxicity study with CS3348 (FIG. 14), 2 males were used for evaluation of the PPU4135-mediated toxicity. In these studies, dose levels were set at 100 (for CS3348) or 90 (for PPU4135) micro g/kg, which were approximately 2.57-fold efficacious concentration producing 80% of the maximal response.

In the case of B7, the “AST, ALT, GLDH, ALP, TBIL, GGT, TBA and CRP” value is reported as “Increased”.
